# Laboratory results taken from US20210188980A1 (SHANGHAI EPIMAB BIOTHERAPEUTICS, published 2021).
# B1: mAb703 (antibody, V domains shown)
# VH: DVQLQESGPGLVKPSQSLSLTCSVTGYSITTGYYWNWIRQFPGNKLEWMGYMSYDGNNNYNPSLKNRISITRDTSKNQFLLRLNSVTTEDTATYFCARDRGTTILGGTMDYWGQGTSVTVS
# VL: SIVMTQTPKFLFVSAGDRVTIACKASQSVSNDVAWYQQKPGQSPKLLIYYAFYRYTGVPDRFTGSGYGTDFTFTISTVQAEDLAVYFCQQDYSSPWTFGGGTKLEIK
# notes: murine hybridoma anti-PD-1 mAb
# B2: mAb713 (antibody, V domains shown)
# VH: EVKLVESGGGLVKPGGSLELSCAASGFTSSDYGMHWVRQAPEKGLEWVAYISSGSYTIYYADTVKGRFTISRDNAKNTLFLQMTSLRSEDTAMYYCAKRGGSSHVNVMDYWGQGTSVTVSS
# VL: DIQMTQSSSYLSVSLGGRVTITCKASDHINNWLAWYQQKPGNAPRLLISGATSLETGVPSRFSGSGSGKDYTLSITSLQTEDVATYYCQQYWSPPYTFGGGTKLEIK
# notes: as for B1
# B3: mAb714 (antibody, V domains shown)
# VH: EVHLQQSGPELVKPGASVKIFCKASGYTFTDNNVEWVKQSHGKSLEWIGDINPNNGDTLYSQYFKDKATLTVDKSSTTAYMELRSLTSEDTGLYYCARGKSDQFDYWGQGTTLTVSS
# VL: DIQMTQSPASQSASLGESVTITCLASQTIGTWLAWYQQKPGKSPQLLIYAATSLADGVPSRFSGSGSGTKFSFKISSLQGEDFVSYYCQQLYSSPWTFGGGTKLEIK
# notes: as for B1
# B4: mAb715 (antibody, V domains shown)
# VH: EVMLVESGGGLLKPGGSLKLSCAASGFTFSSYAMSWVRQTPEKRLEWVATISGGGRDTYYPDSVKGRFTISRDNAKNTLYLQMTSLRSEDTAFYYCAGQGGTYLFASWGQGTLVTVSA
# VL: DIVMTQSHKFMSTSVGDSVTITCKASQDVNTAVAWYQQKPGQPPKVLIYWASTRHTGVPDRFTGSGSGTDYTLTISSVQAEDLALYYCQQHYTTPYTFGGGTKLEIK
# notes: as for B1
# B5: mAb718 (antibody, V domains shown)
# VH: QVQLQQSGAELVRPGASVTLSCKASGYTFTDYEMHWAKQTPVHGLEWIGVIEPESGGTVYNQKFKGKAKLTADKSSRTAYMELRSLTSEDSAVYYCTREGFNSDHYFDYWGQGTTLTVSS
# VL: DVLMTQTPLSLPVSLGDQASISCRSSQNIVHSNGNTYLEWYLQKPGQSPKLLIYKVFNRFSGVPDRFSGSGSGTDFTLKISRVEAEDLGVYYCFQGSHVPYTFGGGTKLEIK
# notes: as for B1
# B6: mAb719 (antibody, V domains shown)
# VH: EVKLVESGGGLVKPGGSLKLSCTASGFSFSSHLMSWVRQTPEKRLEWVAAISGGGADTYYPDSVKGRFTISRDNAKNTLYLQMRSLRSEDTALYYCTRQILAFDSWGQGTTLTVSS
# VL: DIQMNQSPSSLSVSLGDTITITCHASQNIYVWLNWYQQKPGNIPKLLIYKASNLHTGVPSRFSGGGSGTGFTLTISSLQPEDIATYYCQQGQSYPWTFGGGTKLEIK
# notes: as for B1
# B7: mAb709 (antibody, V domains shown)
# VH: EVKLVESGGGLVKPGGSLKLSCAASGFTFSFYTMSWVRQTPEKRLEWVATISGGGRDTYYPDSVKGRFTISRDNAKNTLYLHMSSLRSEDTALYYCAGQGGNYLFAYWGQGTLVTVSA
# VL: DIVMTQSHKFMSTSVGDSVTITCKASQDVNTVVAWYQQKPGQSLKVLISWASTRHTGVPARFTGSGSGTDYTLTISSVQAEDLALYYCQQHYTTPYTFGGGTQLEIK
# notes: as for B1
# B8: mAb701 (antibody, V domains shown)
# VH: EVLLVESGGGLVKPGGSLKLSCAASGFTFSSYMMSWIRQTPERRLEWVASMSGGGRDTYYPDSVKGRFTISRDNAKNTLYLQMSSLRSEDTALYYCARRGTYAMDYWGQGTSVTVSS
# VL: DIQMTQSPASQSASLGESVTITCLASQTIGTWLTWYQQKPGKSPQLLIYAATSLADGVPSRFSGSGSGTKFSFKISSLQAEDFVSYYCQQLYSTPWTFGGGTKLEIK
# notes: as for B1
# Experiments:
# [1] = molecular target: T1, human PD-1 ECD/Fc fusion protein (human); assay: RBA ELISA on huPD-1/Fc; competitor biotin-huPD-L2/Fc
# T1 construct: also called huPD-1/Fc; HuPD-1 ECD/Fc
# Description: (§1) Supernatants displaying PD-1 specific activity were tested for the ability to block PD-1 binding to its ligands PD-L1 and PD-L2 using immobilized human PD-1 ECD/Fc as a target and PD-L1/Fc and PD-L2/Fc fusion proteins, prepared in the same manner as the PD-1 ECD/Fc binding proteins described in Example 1.3 above. To determine the relative potency of the antibody-containing supernatants, their ability to inhibit the binding of a human PD-1 ligand (PD-L1 or PD-L2) to human PD-1 protein was evaluated. ELISA plates were coated with 100 μl of 50 ng/m of huPD-1/Fc (i.e., the extracellular domain of PD-1 grafted onto the N-terminus of a human Fc region, recovered as a homodimer) in PBS and incubated overnight at 4° C. Plates were washed four times in washing buffer (PBS containing 0.05% Tween 20) and blocked for 1 hour at 37° C. with 200 μl per well of blocking buffer (1% BSA in PBS containing 0.05% Tween 20). After blocking buffer was removed, hybridoma supernatant (50 μl) was added to the wells, mixed with either 50 μl biotinylated human PD-L1/Fc ([…] final concentration) in blocking buffer or 50 μl biotinylated human PD-L2/Fc (final concentration 50 μg/ml) in blocking buffer, then incubated at 37° C. for 1 hour. Signal was developed by adding streptavidin-HRP (Sigma, Cat. No. S2468) (100 μl/well of streptavidin-HRP at 1:5000 dilution) and incubating for 40 minutes at 37° C. and washed four times in washing buffer. 100 μl of TMB solution were added per well. Following color development, the reaction was stopped with 1 Normal HCl and absorbance at 450 nm was measured. […]
# [2] = molecular target: T2, human PD-1 expressed on cells (human, UniProt Q15116 25-288); assay: FACS, CHO-K1/huPD-1 cells
# T2 construct: whole, on cells; also called CHO-K1/huPD-1; CHO-K1-hPD-1 cells
# Description: (§2) CHO-K1/huPD-1 or CHO-K1/cynoPD-1 cells, described above, were charged at 2×10⁴ cell per well into 96-well assay round-bottomed assay plates (Cat. No. 3799; Corning) and stained with purified anti-PD-1 antibodies. PD-1 antibodies were detected with AlexaFluor® Donkey anti-Mouse IgG (H+L) Highly Cross-Adsorbed Secondary Antibody, (Cat. No. A21202; Invitrogen), and cell fluorescence was monitored using a flow cytometer. The data were processed by GraphPad software, and EC50 values were calculated.
# [3] = molecular target: T3, cynomolgus PD-1 expressed on CHO-K1 cells (cynomolgus monkey, UniProt B0LAJ3 25-288); assay: FACS, CHO-K1/cynoPD-1 cells
# T3 construct: also called CHO-K1/cynoPD-1; CHO-K1-cynoPD-1
# Description: as §2
# [4] = molecular target: T1, human PD-1 ECD/Fc fusion protein; assay: RBA ELISA on huPD-1/Fc; competitor biotin-huPD-L1/Fc
# Description: as §1
# [5] = molecular target: T1, human PD-1 ECD/Fc fusion protein; assay: ELISA, coated huPD-1/Fc
# Description: ELISA plates were incubated overnight at 4° C. with 50 μl of the synthetic human PD-1 ECD/Fc fusion protein targets described above diluted in PBS buffer, pH 7.4, at 1 μg/ml. Plates were washed four times in washing buffer (PBS containing 0.05% Tween 20), and blocked for 1 hour at 37° C. with 200 μl per well blocking buffer (1% BSA in PBS containing 0.05% Tween 20). After blocking buffer was removed, hybridoma supernatant (or later diluted purified mAbs) were added to the wells at 100 μl per well and incubated at 37° C. for 1 hour. The wells were washed four times with washing buffer, and anti-mouse HRP (Sigma) for mouse anti-human PD-1 antibody characterization were diluted 1:5000 and added to the wells at 100 μl per well. The plates were incubated for 1 hour at 37° C. and washed four times in washing buffer. 100 μl of tetramethylbenzidine (TMB) chromogenic solution were added per well. Following color development, the reaction was stopped with 1 Normal HCl and absorbance at 450 nm was measured on a SpectraMax M5e plate reader (Molecular Devices; San Jose, Calif., US).
# A binding ELISA was performed in the same way as described in Example 1.3 above. Each purified antibody was 10-fold serially diluted and duplicated. After blocking of the 96-well assay plate with wells containing immobilized PD-1 ECD/Fc fusion protein targets, the purified antibody samples with diluted concentrations were added to wells of assay plates. The HRP-linked anti-mouse IgG antibody (A0168, Sigma) and TMB reagent were used to detect and develop the ELISA signal, which were read on a SpectraMax® M5e plate reader at wavelength of 450 nm. Curves were fitted using GraphPad software, and EC50 were calculated. Similarly, a receptor blocking assay (RBA) was also performed as described in Example 1.5 with titrated, purified antibodies, and top blocking percentages and IC50 values were determined.
# [6] = molecular target: T1, human PD-1 ECD/Fc fusion protein; assay: SPR Biacore, mAb captured, huPD-1/Fc analyte
# Description: The binding kinetics of purified antibodies were measured by surface plasmon resonance using a Biacore […] instrument (GE Healthcare) using standard procedures. Briefly, goat anti-mouse IgG Fc polyclonal antibody (Genway) was directly immobilized across a biosensor chip, and antibodies samples were injected over reaction matrices at a flow rate of 5 μl/min. The association and dissociation rate constants, kₒₙ(M⁻¹ s⁻¹) and koff (s⁻¹) respectively, were determined with a continuous flow rate of 30 μl/min. Rate constants were derived by making kinetic binding measurements at five different concentrations of human PD-1/Fc protein. The equilibrium dissociation constant KD (M) of the reaction between antibodies and related target proteins was then calculated from the kinetic rate constants using the formula KD=koff/kₒₙ.
Binder,IC50 [1],TOP inhibition (%) [1],EC50 [2],EC50 [3],IC50 [4],TOP inhibition (%) [4],EC50 [5],Kd [6],koff [6],kon [6]
B1,2.02 nM,95.7%,0.5 nM,0.7 nM,3 nM,96%,0.05 nM,2.45 nM,0.00085 s⁻¹,347000 M⁻¹ s⁻¹
B2,2.52 nM,93.5%,1.1 nM,0.9 nM,2.95 nM,94.4%,0.08 nM,1.96 nM,0.000285 s⁻¹,145000 M⁻¹ s⁻¹
B3,2.24 nM,93.1%,1.6 nM,0.8 nM,2.95 nM,92.3%,0.05 nM,2.11 nM,0.00021 s⁻¹,99400 M⁻¹ s⁻¹
B4,2.17 nM,88%,1.1 nM,0.9 nM,2.91 nM,86.9%,0.04 nM,1.5 nM,0.000237 s⁻¹,158000 M⁻¹ s⁻¹
B5,1.91 nM,96.6%,3.2 nM,4.2 nM,4.19 nM,96.6%,0.02 nM,4.84 nM,0.000283 s⁻¹,58400 M⁻¹ s⁻¹
B6,1.85 nM,95.2%,1.7 nM,2.1 nM,3.39 nM,96.5%,0.02 nM,3 nM,0.000215 s⁻¹,71500 M⁻¹ s⁻¹
B7,0.52 nM,93.7%,0.2 nM,0.2 nM,0.8 nM,91.6%,0.01 nM,0.939 nM,0.000104 s⁻¹,111000 M⁻¹ s⁻¹
B8,2.67 nM,94.1%,3 nM,3.8 nM,5.32 nM,87.1%,0.1 nM,6.81 nM,0.000512 s⁻¹,75200 M⁻¹ s⁻¹
